# According to patent US20240261333A1, “NOVEL TARGETS FOR ENHANCING ANTI-TUMOR IMMUNITY” (THE BROAD INSTITUTE, INC., priority 2021, published 2024):
# T1: B3GNT2 (Homo sapiens, UniProt Q9NY97)
# T1 construct: The respective ORFs of candidate genes [CD274 (NM_014143), MCL1 (NM_021960), JUNB (NM_002229), and B3GNT2 (NM_006577)] were synthesized; expressed in transfected cells; host or cells: A375 melanoma cells (lentiviral ORF overexpression)
# T1 sequence (Q9NY97 1-397): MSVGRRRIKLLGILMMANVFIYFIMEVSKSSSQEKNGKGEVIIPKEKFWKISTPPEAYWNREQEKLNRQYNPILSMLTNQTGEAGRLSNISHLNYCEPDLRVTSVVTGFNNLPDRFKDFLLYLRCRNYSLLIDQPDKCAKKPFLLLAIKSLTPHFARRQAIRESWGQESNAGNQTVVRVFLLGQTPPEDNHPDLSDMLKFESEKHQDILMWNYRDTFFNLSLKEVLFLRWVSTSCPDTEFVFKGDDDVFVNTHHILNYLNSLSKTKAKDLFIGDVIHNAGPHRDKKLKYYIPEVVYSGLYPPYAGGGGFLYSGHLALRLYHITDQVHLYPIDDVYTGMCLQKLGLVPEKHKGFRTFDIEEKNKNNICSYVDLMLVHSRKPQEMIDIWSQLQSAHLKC
# B1: CCT7 (protein)
# chain: MDKLIVDGRGKATISNDGATILKLLDVVHPAAKTLVDIAKSQDAEVGDGTTSVTLLAAEFLKQVKPYVEEGLHPQIIIRAFRTATQLAVNKIKEIAVTVKKADKVEQRKLLEKCAMTALSSKLISQQKAFFAKMVVDAVMMLDDLLQLKMIGIKKVQGGALEDSQLVAGVAFKKTFSYAGFEMQPKKYHNPKIALLNVELELKAEKDNAEIRVHTVEDYQAIVDAEWNILYDKLEKIHHSGAKVVLSKLPIGDVATQYFADRDMFCAGRVPEEDLKRTMMACGGSIQTSVNALSADVLGRCQVFEETQIGGERYNFFTGCPKAKTCTFILRGGAEQFMEETERSLHDAIMIVRRAIKNDSVVAGGGAIEMELSKYLRDYSRTIPGKQQLLIGAYAKALEIIPRQLCDNAGFDATNILNKLRARHAQGGTWYGVDINNEDIADNFEAFVWEPAMVRINALTAASEAACLIVSVDETIKNPRSTVDAPTAAGRGRGRGRPH
# B2: ILF3 (protein)
# chain: MRPMRIFVNDDRHVMAKHSSVYPTQEELEAVQNMVSHTERALKAVSDWIDEQEKGSSEQAESDNMDVPPEDDSKEGAGEQKTEHMTRTLRGVMRVGLVAKGLLLKGDLDLELVLLCKEKPTTALLDKVADNLAIQLAAVTEDKYEILQSVDDAAIVIKNTKEPPLSLTIHLTSPVVREEMEKVLAGETLSVNDPPDVLDRQKCLAALASLRHAKWFQARANGLKSCVIVIRVLRDLCTRVPTWGPLRGWPLELLCEKSIGTANRPMGAGEALRRVLECLASGIVMPDGSGIYDPCEKEATDAIGHLDRQQREDITQSAQHALRLAAFGQLHKVLGMDPLPSKMPKKPKNENPVDYTVQIPPSTTYAITPMKRPMEEDGEEKSPSKKKKKIQKKEEKAEPPQAMNALMRLNQLKPGLQYKLVSQTGPVHAPIFTMSVEVDGNSFEASGPSKKTAKLHVAVKVLQDMGLPTGAEGRDSSKGEDSAEETEAKPAVVAPAPVVEAVSTPSAAFPSDATAEQGPILTKHGKNPVMELNEKRRGLKYELISETGGSHDKRFVMEVEVDGQKFQGAGSNKKVAKAYAALAALEKLFPDTPLALDANKKKRAPVPVRGGPKFAAKPHNPGFGMGGPMHNEVPPPPNLRGRGRGGSIRGRGRGRGFGGANHGGYMNAGAGYGSYGYGGNSATAGYSQFYSNGGHSGNASGGGGGGGGGSSGYGSYYQGDNYNSPVPPKHAGKKQPHGGQQKPSYGSGYQSHQGQQQSYNQSPYSNYGPPQGKQKGYNHGQGSYSYSNSYNSPGGGGGSDYNYESKFNYSGSGGRSGGNSYGSGGASYNPGSHGGYGGGSGGGSSYQGKQGGYSQSNYNSPGSGQNYSGPPSSYQSSQGGYGRNADHSMNYQYR
# B3: MSN (protein)
# chain: PKTISVRVTTMDAELEFAIQPNTTGKQLFDQVVKTIGLREVWFFGLQYQDTKGFSTWLKLNKKVTAQDVRKESPLLFKFRAKFYPEDVSEELIQDITQRLFFLQVKEGILNDDIYCPPETAVLLASYAVQSKYGDFNKEVHKSGYLAGDKLLPQRVLEQHKLNKDQWEERIQVWHEEHRGMLREDAVLEYLKIAQDLEMYGVNYFSIKNKKGSELWLGVDALGLNIYEQNDRLTPKIGFPWSEIRNISFNDKKFVIKPIDKKAPDFVFYAPRLRINKRILALCMGNHELYMRRRKPDTIEVQQMKAQAREEKHQKQMERAMLENEKKKREMAEKEKEKIEREKEELMERLKQIEEQTKKAQQELEEQTRRALELEQERKRAQSEAEKLAKERQEAEEAKEALLQASRDQKKTQEQLALEMAELTARISQLEMARQKKESEAVEWQQKAQMVQEDLEKTRAELKTAMSTPHVAEPAENEQDEQDENGAEASADLRADAMAKDRSEEERTTEAEKNERVQKHLKALTSELANARDESKKTANDMIHAENMRLGRDKYKTLRQIRQGNTKQRIDEFESM
# B4: MAGT1 (protein)
# chain: QRKKEMVLSEKVSQLMEWTNKRPVIRMNGDKFRRLVKAPPRNYSVIVMFTALQLHRQCVVCKQADEEFQILANSWRYSSAFTNRIFFAMVDFDEGSDVFQMLNMNSAPTFINFPAKGKPKRGDTYELQVRGFSAEQIARWIADRTDVNIRVIRPPNYAGPLMLGLLLAVIGGLVYLRRSNMEFLFNKTGWAFAALCFVLAMTSGQMWNHIRGPPYAHKNPHTGHVNYIHGSSQAQFVAETHIVLLFNGGVTLGMVLLCEAATSDMDIGKRKIMCVAGIGLVVLFFSWMLSIFRSKYHGYPYSFLMS
# B5: ARHGEF2 (protein, UniProt Q92974 1-986, looked up)
# Rho guanine nucleotide …: MSRIESLTRARIDRSRELASKTREKEKMKEAKDARYTNGHLFTTISVSGMTMCYACNKSITAKEALICPTCNVTIHNRCKDTLANCTKVKQKQQKAALLKNNTALQSVSLRSKTTIRERPSSAIYPSDSFRQSLLGSRRGRSSLSLAKSVSTTNIAGHFNDESPLGLRRILSQSTDSLNMRNRTLSVESLIDEAEVIYSELMSDFEMDEKDFAADSWSLAVDSSFLQQHKKEVMKQQDVIYELIQTELHHVRTLKIMTRLFRTGMLEELHLEPGVVQGLFPCVDELSDIHTRFLSQLLERRRQALCPGSTRNFVIHRLGDLLISQFSGPSAEQMCKTYSEFCSRHSKALKLYKELYARDKRFQQFIRKVTRPAVLKRHGVQECILLVTQRITKYPLLISRILQHSHGIEEERQDLTTALGLVKELLSNVDEGIYQLEKGARLQEIYNRMDPRAQTPVPGKGPFGREELLRRKLIHDGCLLWKTATGRFKDVLVLLMTDVLVFLQEKDQKYIFPTLDKPSVVSLQNLIVRDIANQEKGMFLISAAPPEMYEVHTASRDDRSTWIRVIQQSVRTCPSREDFPLIETEDEAYLRRIKMELQQKDRALVELLREKVGLFAEMTHFQAEEDGGSGMALPTLPRGLFRSESLESPRGERLLQDAIREVEGLKDLLVGPGVELLLTPREPALPLEPDSGGNTSPGVTANGEARTFNGSIELCRADSDSSQRDRNGNQLRSPQEEALQRLVNLYGLLHGLQAAVAQQDTLMEARFPEGPERREKLCRANSRDGEAGRAGAAPVAPEKQATELALLQRQHALLQEELRRCRRLGEERATEAGSLEARLRESEQARALLEREAEEARRQLAALGQTEPLPAEAPWARRPVDPRRRSLPAGDALYLSFNPPQPSRGTDRLDLPVTTRSVHRNFEDRERQELGSPEERLQDSSDPDTGSEEEGSSRLSPPHSPRDFTRMQDIPEETESRDGEAVASES
# B6: SPRR1A (protein)
# chain: MNSQQQKQPCTPPPQPQQQQVKQPCQPPPQEPCIPKTKEPCHPKVPEPCHPKVPEPCQPKVPEPCQPKVPEPCPSTVTPAPAQQKTKQK
# Molecular target: T1, B3GNT2
# Test: Co-IP of FLAG-tagged B3GNT2 followed by mass spectrometry
# Assay type: cell-based
# Parameters: C-term IgG / C-term flag: unit not given here
# Conditions: Co-IP with FLAG antibody, C-terminally FLAG-tagged B3GNT2; mass spectrometry count, unit not given
# Summary of the method: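 FLAG-tagged B3GNT2 immunoprecipitated from cell lysate (HEPES, 1% Triton X-100, 150 mM NaCl) with anti-FLAG versus […], overnight at 4° C, then captured on Protein A/G magnetic beads for 4 h. Two biological replicates per condition. Peptides fractionated and analyzed by nano-LC on an Orbitrap Elite in data-dependent mode.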
row,C-term flag,Molecule
1,2,B1
2,5,B2
3,4,B3
4,2,B4
5,2,B5
6,3,B6

# Same assay, conditions: Co-IP with FLAG antibody, N-terminally FLAG-tagged B3GNT2; mass spectrometry count, unit not given
row,N-term FLAG,Molecule
1,0,B1
2,2,B2
3,3,B3
4,0,B4
5,0,B5
6,4,B6

# Same assay, conditions: Co-IP with IgG control antibody, C-terminally FLAG-tagged B3GNT2; mass spectrometry count, unit not given
row,C-term IgG,Molecule
1,0,B1
2,0,B2
3,0,B3
4,0,B4
5,0,B5
6,0,B6

# Same assay, conditions: Co-IP with IgG control antibody, N-terminally FLAG-tagged B3GNT2; mass spectrometry count, unit not given
row,N-term IgG,Molecule
1,0,B1
2,0,B2
3,0,B3
4,0,B4
5,0,B5
6,0,B6
